Laboratory results published in PMC10881513 (Nature Communications, 2024).

Target: T1, ASFV RNA polymerase subunit vRPB1 (African swine fever virus, strain BA71V, UniProt P42486 1-1450)
T1 sequence: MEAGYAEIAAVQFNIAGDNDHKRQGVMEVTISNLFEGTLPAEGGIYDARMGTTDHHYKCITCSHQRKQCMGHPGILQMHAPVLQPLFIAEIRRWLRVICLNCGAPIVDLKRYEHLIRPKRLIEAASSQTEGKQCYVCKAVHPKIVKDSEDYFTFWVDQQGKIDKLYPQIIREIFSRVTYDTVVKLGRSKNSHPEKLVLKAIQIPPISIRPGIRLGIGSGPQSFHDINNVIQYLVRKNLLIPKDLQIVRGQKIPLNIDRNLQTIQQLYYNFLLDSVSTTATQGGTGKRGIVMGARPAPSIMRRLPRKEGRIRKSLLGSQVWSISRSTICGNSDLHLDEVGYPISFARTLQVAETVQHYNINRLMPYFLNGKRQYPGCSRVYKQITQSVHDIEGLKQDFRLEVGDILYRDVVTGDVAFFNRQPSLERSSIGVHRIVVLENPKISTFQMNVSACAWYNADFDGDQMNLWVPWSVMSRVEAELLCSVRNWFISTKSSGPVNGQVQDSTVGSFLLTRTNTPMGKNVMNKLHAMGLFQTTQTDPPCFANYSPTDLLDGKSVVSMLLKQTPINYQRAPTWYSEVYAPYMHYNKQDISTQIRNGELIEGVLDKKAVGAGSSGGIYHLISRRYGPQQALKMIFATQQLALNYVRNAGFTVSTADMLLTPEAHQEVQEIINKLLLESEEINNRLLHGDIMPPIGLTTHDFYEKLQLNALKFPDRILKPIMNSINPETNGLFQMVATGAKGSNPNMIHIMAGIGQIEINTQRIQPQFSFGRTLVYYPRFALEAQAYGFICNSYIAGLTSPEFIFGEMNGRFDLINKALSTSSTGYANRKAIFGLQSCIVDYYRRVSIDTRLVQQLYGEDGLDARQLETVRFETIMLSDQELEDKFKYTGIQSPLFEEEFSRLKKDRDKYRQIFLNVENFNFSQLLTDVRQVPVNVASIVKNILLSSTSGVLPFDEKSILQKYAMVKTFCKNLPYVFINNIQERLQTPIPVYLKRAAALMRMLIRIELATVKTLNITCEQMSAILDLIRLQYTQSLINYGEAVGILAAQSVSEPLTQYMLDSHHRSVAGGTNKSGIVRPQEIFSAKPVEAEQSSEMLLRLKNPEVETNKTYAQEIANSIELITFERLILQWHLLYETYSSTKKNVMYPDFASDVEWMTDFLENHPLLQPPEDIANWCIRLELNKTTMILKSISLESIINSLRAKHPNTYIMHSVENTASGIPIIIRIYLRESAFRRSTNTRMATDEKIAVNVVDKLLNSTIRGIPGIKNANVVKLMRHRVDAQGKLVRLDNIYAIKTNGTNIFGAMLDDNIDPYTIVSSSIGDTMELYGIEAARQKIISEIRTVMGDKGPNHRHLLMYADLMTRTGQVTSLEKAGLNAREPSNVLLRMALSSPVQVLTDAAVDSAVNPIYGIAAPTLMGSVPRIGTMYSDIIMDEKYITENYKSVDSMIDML
Experiment: cryo-EM structure
Conditions: both partners purified

B1: ASFV RNA polymerase subunit vRPB2, His-ZZ-tag cleaved with TEV (natural protein)
chain: MEPLRPQITYGPIETVDNEELTEADMLSFISAAVNSTGLIGYNIKSFDDLMDNGIPQIVKQMFNVDITYKDQRDHTEIDKLRESVQIQFNFTDVNIERPQHRNYSQGNKINLLPNKARLCGLSYSGPVNLAAEVILTAHYSNGRQEVKRASIPPFQVSTFPIMRGSNRCHTHHLSKTAKKEIGEDPNEPGGYFIARGGEWVVDLLENIRFNTLHIHYHTMQQGNNEIIRGEFISQPGGAFENSSQIIIRYMTTGAITIEINSTKFSKLRIPWYLIFRMFGMTGDDSIIEQVVFDLESNSPVNTFMIEILEKSIHVLDPIFQPVQHEPNREKIIQFLSEKVSKFVSNPSAYKSDENAVQYLNERQLTILDKILLPHMGQTADTRVRKLRFLGLLIHKILLVIMNVFPPTDRDSYRTKRVHGSGVSLAKAFKAIFNTSVIAPIINGFKELLKQTAFEELTQRNIIEAFSAALSKNTASDLNRSMEQSIISGNKTIMVRQRPIVNRVSTQSLERKNLLNTISALRTVNTHNTTNASKQTERADMMRRVHASYPGYICVAQSADTGEKVGMSKQLAITANVCTAGEVLSLKQRLLSDPAIQQLADVSNKDIVRKGLARVFINGEWIGCCTNAFELAQRYRMFRREGKIVHPHTTIYWDSMVDEVEFWLDVGRLTRPLLIVDNNIEKYNQACYKAAEARKKGDKDWEKHKIPFIQNTRFTSQMAKDILAGTLTLEDLVAQGICEFITPEEAENCLVAFSIIELRKHKHDVTRRFTHVDVPQAILGLAALVSPYANCTQPARVTYETNQGRQTGGWYCFSWPYRVDMNRFFQFYNEMPLVKTIAHNYVIPNGLNTIVAYMIYGGYNQEDSVIVSQSFIDRGGFAGTFYREEKVELESDIESFGKPDPLITKNLKPGANYEKLVDGFVPVGTVVKKGDIIIGKVAKIRGEKDELNKYIDRSVMYGFDEPAVVDAVMRPHGPNDEIFGLMRLRYERNLNIGDKMSSRSGNKGIAALALPTSDMPFTEDGLQPDLIVNPHSHPSRMTNGQMIETTVGLANALQGVVTDGTAFLPINVQLLSERLAQEGLRFNGCQKMFNGQTGEYFDAAIFIGPTYHQRLQKFVLDDRYAVASYGPTDALTGQPLDGKRSHGGLRLGEMEHWVLTAQGAMQTIIEKSHDDSDGCISYICRNCGEPAIYNASHPIYKCMNCDVQADIGMVDSRRSSIVFQHEMRAANVNITSVLSPRVFQPA
Does B1 bind?
Result: binds
